Our source for the yield of Hsp70 complex formation values is patent US20040071656A1, “Modulation of heat-shock-protein-based immunotherapies” (priority 2001, published 2004).

This experiment has as its target Recombinant human His6-tagged Hsp70 (human), P0DMV8. The experiment can be described thus: ELISA with streptavidin-peroxidase after gel filtration of Hsp70 loaded with biotinylated peptide C (ADP). For orientation: ELISA stands for enzyme-linked immunosorbent assay.

No end group written: not given here. *: point of attachment. Biotin = O=C1N[C@H]2[C@H](CS[C@H]2CCCCC(=O)*)N1

Recombinant human His6-tagged Hsp70 (human), P0DMV8, sequence (P0DMV8 2-641): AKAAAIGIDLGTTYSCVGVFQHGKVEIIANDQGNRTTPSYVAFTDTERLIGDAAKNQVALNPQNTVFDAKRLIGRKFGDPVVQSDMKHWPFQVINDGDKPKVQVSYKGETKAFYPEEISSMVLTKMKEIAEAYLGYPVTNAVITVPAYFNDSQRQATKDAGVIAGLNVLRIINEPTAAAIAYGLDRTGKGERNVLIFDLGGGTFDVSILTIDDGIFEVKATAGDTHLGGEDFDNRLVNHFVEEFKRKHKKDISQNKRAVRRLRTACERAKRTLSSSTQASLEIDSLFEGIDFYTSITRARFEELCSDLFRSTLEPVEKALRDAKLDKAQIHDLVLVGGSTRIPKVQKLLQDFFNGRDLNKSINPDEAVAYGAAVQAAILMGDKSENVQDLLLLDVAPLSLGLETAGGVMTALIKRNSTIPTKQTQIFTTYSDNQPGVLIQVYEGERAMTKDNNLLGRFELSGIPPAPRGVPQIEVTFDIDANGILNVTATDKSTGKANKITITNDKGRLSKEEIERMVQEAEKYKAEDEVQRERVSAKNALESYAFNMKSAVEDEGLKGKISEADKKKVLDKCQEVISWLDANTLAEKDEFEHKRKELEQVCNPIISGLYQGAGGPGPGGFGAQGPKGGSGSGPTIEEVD

Take Biotin-GCEVFGLGWRSYKH [Biotinylated peptide C (biotin-…)]: the yield of Hsp70 complex formation was 20 to 30%.
